# Patent publication US20210130436A1 (published 2021)
# Changes are numbered by the printed parent chain. Names may count otherwise.
# B1: variant CD80 IgV-Fc Q33L/E35D/M47V (Fc fusion, not shown: a dimerising Fc or GST)
# chain: VIHVTKEVKEVATLSCGHNVSVEELAQTRIYWLKDKKMVLTMMSGDVNIWPEYKNRTIFDITNNLSIVILALRPSDEGTYECVVLKYEKDAFKREHLAEVTLSVKAD
# B2: variant CD80 IgV-Fc Q33L/E35D/M47V/T79A (Fc fusion, not shown: a dimerising Fc or GST)
# chain: B1 chain with T79A
# B3: variant CD80 IgV-Fc H18L/V22A/E35D/M47L/N48T/L85Q (Fc fusion, not shown: a dimerising Fc or GST)
# chain: B1 chain with H18L, V22A, L33Q, V47L, N48T, L85Q
# B4: variant CD80 IgV-Fc Q33R/E35D/D46E/M47I (Fc fusion, not shown: a dimerising Fc or GST)
# chain: B1 chain with L33R, D46E, V47I
# B5: variant CD80 IgV-Fc A26E/E35D/M43I/M47L/L85Q/K86E/R94W (Fc fusion, not shown: a dimerising Fc or GST)
# chain: B1 chain with A26E, L33Q, M43I, V47L, L85Q, K86E, R94W
# B6: variant CD80 IgV-Fc Q33L/E35D/M47I (Fc fusion, not shown: a dimerising Fc or GST)
# chain: B1 chain with V47I
# B7: variant CD80 IgV-Fc Q33K/E35D/D46V/L85Q (Fc fusion, not shown: a dimerising Fc or GST)
# chain: B1 chain with L33K, D46V, V47M, L85Q
# B8: variant CD80 IgV-Fc Q33L/E35D/T41S/M47V (Fc fusion, not shown: a dimerising Fc or GST)
# chain: B1 chain with T41S
# B9: CD80 IgV-Fc S21P/E35D/K37E/D46E/M47I/V68M (Fc fusion, not shown: a dimerising Fc or GST)
# chain: B1 chain with S21P, L33Q, K37E, D46E, V47I, V68M
# B10: CD80 IgV-Fc S21P/E35D/K37E/D46E/M47I/V68M/R94L (Fc fusion, not shown: a dimerising Fc or GST)
# chain: B1 chain with S21P, L33Q, K37E, D46E, V47I, V68M, R94L
# B11: CD80 IgV-Fc V22D/E24D/E35D/M47V/V68M (Fc fusion, not shown: a dimerising Fc or GST)
# chain: B1 chain with V22D, E24D, L33Q, V68M
# B12: CD80 IgV-Fc T13R/Q33R/E35D/M38I/M47L/V68M/L85M/R94Q (Fc fusion, not shown: a dimerising Fc or GST)
# chain: B1 chain with T13R, L33R, M38I, V47L, V68M, L85M, R94Q
# B13: variant CD80 IgV-Fc E35D/M43I/M47L/L85M (Fc fusion, not shown: a dimerising Fc or GST)
# chain: B1 chain with L33Q, M43I, V47L, L85M
# B14: variant CD80 IgV-Fc E35D/M47V/L85M/R94Q (Fc fusion, not shown: a dimerising Fc or GST)
# chain: B1 chain with L33Q, L85M, R94Q
# B15: variant CD80 IgV-Fc E35D/M47L/A71G (Fc fusion, not shown: a dimerising Fc or GST)
# chain: B1 chain with L33Q, V47L, A71G
# B16: variant CD80 IgV-Fc E35D/M47V/I61V/L85M (Fc fusion, not shown: a dimerising Fc or GST)
# chain: B1 chain with L33Q, I61V, L85M
# B17: variant CD80 IgV-Fc E35D/M47V/T62S/L85Q (Fc fusion, not shown: a dimerising Fc or GST)
# chain: B1 chain with L33Q, T62S, L85Q
# B18: CD80 E35D/M47V/N48K IgV-Fc (Fc fusion, not shown: small tags and cut ends; a dimerising Fc or GST)
# chain: B1 chain with L33Q, N48K
# B19: CD80 N48K/V68M/K89N IgV-Fc (Fc fusion, not shown: small tags and cut ends; a dimerising Fc or GST)
# chain: B1 chain with L33Q, D35E, V47M, N48K, V68M, K89N
# B20: CD80 V68M/K89N IgV-Fc (Fc fusion, not shown: small tags and cut ends; a dimerising Fc or GST)
# chain: B1 chain with L33Q, D35E, V47M, V68M, K89N
# B21: CD80 M47V/N48K/V68M/K89N IgV-Fc (Fc fusion, not shown: small tags and cut ends; a dimerising Fc or GST)
# chain: B1 chain with L33Q, D35E, N48K, V68M, K89N
# B22: CD80 E35D/M47V/V68M IgV-Fc (Fc fusion, not shown: small tags and cut ends; a dimerising Fc or GST)
# chain: B1 chain with L33Q, V68M
# B23: CD80 E35D/M47V/V68M/K89N IgV-Fc (Fc fusion, not shown: small tags and cut ends; a dimerising Fc or GST)
# chain: B1 chain with L33Q, V68M, K89N
# B24: CD80 E35D/M47V/N48K/V68M IgV-Fc (Fc fusion, not shown: small tags and cut ends; a dimerising Fc or GST)
# chain: B1 chain with L33Q, N48K, V68M
# B25: variant CD80 IgV-Fc (inert) H18V/A26N/E35D/M47V/V68M/A71G (Fc fusion)
# chain: B1 chain with H18V, A26N, L33Q, V68M, A71G
# notes: not shown: inert human IgG1 Fc
# B26: variant CD80 IgV-Fc (inert) H18F/A26P/E35D/M47I/V68M/A71G/D90G (Fc fusion)
# chain: B1 chain with H18F, A26P, L33Q, V47I, V68M, A71G, D90G
# notes: as for B25
# B27: variant CD80 IgV-Fc (inert) H18V/A26P/E35D/M47V/V68L/A71G (Fc fusion)
# chain: B1 chain with H18V, A26P, L33Q, V68L, A71G
# notes: as for B25
# B28: variant CD80 IgV-Fc (inert) H18Y/A26P/E35D/M47V/V68M/A71G (Fc fusion)
# chain: B1 chain with H18Y, A26P, L33Q, V68M, A71G
# notes: as for B25
# B29: variant CD80 IgV-Fc (inert) H18R/A26P/E35D/D46N/M47V/V68M/A71G/D90P (Fc fusion)
# chain: B1 chain with H18R, A26P, L33Q, D46N, V68M, A71G, D90P
# notes: as for B25
# B30: CD80 IgV-Fc V22D/E24D/E35D/M47L/V68M (Fc fusion, not shown: a dimerising Fc or GST)
# chain: B1 chain with V22D, E24D, L33Q, V47L, V68M
# B31: CD80 IgV-Fc T13R/E35D/M47L/V68M (Fc fusion, not shown: a dimerising Fc or GST)
# chain: B1 chain with T13R, L33Q, V47L, V68M
# B32: variant CD80 IgV-Fc (inert) A26P/E35D/M47I/V68M/A71G/D90G (Fc fusion)
# chain: B1 chain with A26P, L33Q, V47I, V68M, A71G, D90G
# notes: as for B25
# B33: CD80 E35D/V68M/K89N IgV-Fc (Fc fusion, not shown: small tags and cut ends; a dimerising Fc or GST)
# chain: B1 chain with L33Q, V47M, V68M, K89N
# B34: CD80 IgV-Fc V22D/E24D/E35D/M47L/V68M/L85M/D90G (Fc fusion, not shown: a dimerising Fc or GST)
# chain: B1 chain with V22D, E24D, L33Q, V47L, V68M, L85M, D90G
# Target: T1, human CTLA4 (full-length, expressed on CHO cells) (human, UniProt P16410 36-223)
# T1 construct: also called huCTLA4
# T1 sequence (P16410 36-223): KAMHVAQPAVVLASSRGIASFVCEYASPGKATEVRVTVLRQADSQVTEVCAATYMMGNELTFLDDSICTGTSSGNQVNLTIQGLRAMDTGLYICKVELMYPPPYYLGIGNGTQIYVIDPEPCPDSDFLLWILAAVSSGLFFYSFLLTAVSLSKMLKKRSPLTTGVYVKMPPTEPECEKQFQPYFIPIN
# Assay: flow cytometry, CHO cells expressing huCTLA4, PE anti-human Fc
row,MFI at 33.3 nM,Binder
1,47600 MFI,B1
2,28900 MFI,B2
3,374000 MFI,B3
4,3560 MFI,B4
5,2950 MFI,B5

# Target: T2, human PD-L1 (full-length, expressed on CHO cells) (human, UniProt Q9NZQ7 19-290)
# T2 construct: also called huPD-L1; CD274
# T2 sequence (Q9NZQ7 19-290): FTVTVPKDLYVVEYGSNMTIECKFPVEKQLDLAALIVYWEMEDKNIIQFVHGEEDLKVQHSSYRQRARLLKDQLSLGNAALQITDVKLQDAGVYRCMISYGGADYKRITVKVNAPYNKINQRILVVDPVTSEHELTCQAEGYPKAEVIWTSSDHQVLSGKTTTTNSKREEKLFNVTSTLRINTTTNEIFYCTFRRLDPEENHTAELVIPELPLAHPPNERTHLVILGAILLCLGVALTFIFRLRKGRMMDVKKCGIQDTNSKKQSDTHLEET
# Assay: flow cytometry MFI at 33.3 nM relative to WT CD80 ECD-Fc (R&D), CHO/huPD-L1 cells
row,Fold change to WT,Binder
1,4.7 fold,B6
2,12.3 fold,B3
3,3.36 fold,B7
4,5.52 fold,B8

# Target: T3, CD28 (endogenously expressed on Jurkat/IL2 reporter cells) (human, UniProt P10747 19-220)
# T3 construct: Endogenous CD28 of Jurkat cells; also called human CD28
# Assay: flow cytometry, Jurkat/IL2 reporter cells (endogenous CD28), PE anti-human Fc
row,MFI at 33.3 nM,Binder
1,282 MFI,B6
2,257 MFI,B7
3,303 MFI,B4
4,314 MFI,B5
5,287 MFI,B8

# Target: T2, human PD-L1 (full-length, expressed on …)
# Assay: flow cytometry, MFI on CHO/huPD-L1 cells over MFI on Jurkat (CD28) cells, 33.3 nM
row,Ratio of PDL1:CD28,Binder
1,132 ratio,B6
2,226 ratio,B3
3,104 ratio,B7
4,153 ratio,B8

# Target: T1, human CTLA4 (full-length, expressed on …)
# Assay: flow cytometry MFI at 33.3 nM relative to WT CD80 ECD-Fc (R&D), CHO/huCTLA4 cells
row,Fold change to WT CD80,Binder
1,2.09 fold,B3

# Target: T4, human CTLA-4 (human, UniProt P16410 36-223)
# T4 construct: also called huCTLA4
# Assay: flow cytometry, CHO cells stably expressing CTLA4
row,MFI at 33.3 nM,Binder
1,20600 MFI,B9
2,20100 MFI,B10
3,16900 MFI,B11
4,19100 MFI,B12

# Target: T2, human PD-L1 (full-length, expressed on …)
# Assay: flow cytometry, CHO cells expressing huPD-L1, PE anti-human Fc
row,MFI at 33.3 nM,Binder
1,47900 MFI,B1
2,37400 MFI,B6
3,62100 MFI,B2
4,98100 MFI,B3
5,26700 MFI,B7
6,43800 MFI,B8

# Target: T5, human CTLA4 on CHO cells (human, UniProt P16410 36-223)
# T5 construct: whole, on cells; CHO cells stably expressing CTLA4; also called huCTLA4
# T5 sequence (P16410 36-223): as the sequence (P16410 36-223) above
# Assay: flow cytometry, CHO cells stably expressing CTLA4
row,MFI at 33.3 nM,Binder
1,24600 MFI,B13
2,23300 MFI,B14
3,20600 MFI,B15
4,28800 MFI,B16
5,31200 MFI,B17

# Target: T6, human PD-L1 expressed on CHO cells (human, UniProt Q9NZQ7 19-290)
# T6 construct: whole, on cells; Target on CHO cells stably expressing PD-L1; also called huPD-L1
# T6 sequence (Q9NZQ7 19-290): as the sequence (Q9NZQ7 19-290) above
# Assay: flow cytometry, CHO cells stably expressing PD-L1, Fc fusion at 33.3 nM
row,MFI at 33.3 nM,Binder
1,4850 MFI,B18
2,11500 MFI,B19
3,538 MFI,B20
4,23700 MFI,B21
5,16600 MFI,B22
6,21800 MFI,B23
7,23500 MFI,B24

# Target: T7, human PD-L1 (human, UniProt Q9NZQ7 19-290)
# T7 construct: whole, on cells; CHO cells stably expressing huPD-L1; also called huPD-L1
# Assay: flow cytometry, CHO cells stably expressing huPD-L1, 33.3 nM Fc fusion, PE anti-human Fc
row,MFI at 33.3 nM,Binder
1,68200 MFI,B25
2,32300 MFI,B26
3,55400 MFI,B27
4,51500 MFI,B28
5,29300 MFI,B29

# Target: T8, human PD-L1 on CHO cells (human, UniProt Q9NZQ7 19-290)
# T8 construct: whole, on cells; CHO cells stably expressing PD-L1; also called huPD-L1
# T8 sequence (Q9NZQ7 19-290): as above
# Assay: flow cytometry, CHO cells stably expressing PD-L1
row,MFI at 33.3 nM,Binder
1,4880 MFI,B13
2,6640 MFI,B15
3,3050 MFI,B16

# Target: human CD28 (human, UniProt P10747 19-220)
# Assay: flow cytometry, Jurkat cells (CD28)
row,MFI at 33.3 nM,Binder
1,540 MFI,B9
2,284 MFI,B10
3,1250 MFI,B30
4,191 MFI,B11
5,15.6 MFI,B31
6,15.2 MFI,B12

# Target: T9, human CTLA-4 (human, UniProt P16410 36-223)
# T9 construct: whole, on cells; CHO cells stably expressing huCTLA4; also called huCTLA4
# Assay: flow cytometry, CHO cells stably expressing huCTLA-4, 33.3 nM Fc fusion, PE anti-human Fc
row,MFI at 33.3 nM,Binder
1,22400 MFI,B25
2,23900 MFI,B26
3,13700 MFI,B27
4,17300 MFI,B29
5,19800 MFI,B32

# Target: T10, human CTLA4 expressed on CHO cells (human, UniProt P16410 36-223)
# T10 construct: whole, on cells; Target on CHO cells stably expressing CTLA4; also called huCTLA4
# T10 sequence (P16410 36-223): as the sequence (P16410 36-223) above
# Assay: flow cytometry, CHO cells stably expressing CTLA4, Fc fusion at 33.3 nM
row,MFI at 33.3 nM,Binder
1,47400 MFI,B18
2,19100 MFI,B19
3,2330 MFI,B20
4,29500 MFI,B23
5,24800 MFI,B33
6,32900 MFI,B24

# Target: T11, CD28 on Jurkat/IL2 reporter cells (human, UniProt P10747 19-220)
# T11 construct: whole, on cells; Endogenous CD28 of Jurkat cells; also called Jurkats (CD28)
# Assay: flow cytometry, Jurkat cells (CD28)
row,MFI at 33.3 nM,Binder
1,23.7 MFI,B14
2,274 MFI,B16
3,99.4 MFI,B17

# Target: T3, CD28 (endogenously expressed on …)
# Assay: flow cytometry MFI at 33.3 nM relative to WT CD80 ECD-Fc (R&D), Jurkat cells
row,Fold change to WT,Binder
1,0.04 fold,B6
2,0.03 fold,B7
3,0.04 fold,B8

# Target: T12, human PD-L1 (human, UniProt Q9NZQ7 19-290)
# T12 construct: also called huPD-L1; CD274
# Assay: flow cytometry, CHO cells stably expressing PD-L1
row,MFI at 33.3 nM,Binder
1,15400 MFI,B30
2,19000 MFI,B34
3,20000 MFI,B31
4,20400 MFI,B12

# Target: T13, human CD28 (human, UniProt P10747 19-220)
# T13 construct: whole, on cells; Jurkat/IL2 reporter cells, which endogenously express CD28
# Assay: flow cytometry, Jurkat/IL2 reporter cells (endogenous CD28), 33.3 nM Fc fusion, PE anti-human Fc
row,MFI at 33.3 nM,Binder
1,4800 MFI,B26
2,6910 MFI,B28
3,8190 MFI,B32
